Measured values published in patent publication US20230381350A1 (PRECIRIX N V, published 2023).

How the values were obtained:
[1] = molecular target: T1, murine FAP recombinant protein (murine, UniProt P97321 26-761); experiment: ELISA, coated murine FAP recombinant protein, HA-His6-tagged VHH extract, anti-HA detection
T1 construct: The protein was biotinylated for bio-layer interferometry; also called extracellular domain of murine FAP with N-terminal His6-tag
T1 sequence: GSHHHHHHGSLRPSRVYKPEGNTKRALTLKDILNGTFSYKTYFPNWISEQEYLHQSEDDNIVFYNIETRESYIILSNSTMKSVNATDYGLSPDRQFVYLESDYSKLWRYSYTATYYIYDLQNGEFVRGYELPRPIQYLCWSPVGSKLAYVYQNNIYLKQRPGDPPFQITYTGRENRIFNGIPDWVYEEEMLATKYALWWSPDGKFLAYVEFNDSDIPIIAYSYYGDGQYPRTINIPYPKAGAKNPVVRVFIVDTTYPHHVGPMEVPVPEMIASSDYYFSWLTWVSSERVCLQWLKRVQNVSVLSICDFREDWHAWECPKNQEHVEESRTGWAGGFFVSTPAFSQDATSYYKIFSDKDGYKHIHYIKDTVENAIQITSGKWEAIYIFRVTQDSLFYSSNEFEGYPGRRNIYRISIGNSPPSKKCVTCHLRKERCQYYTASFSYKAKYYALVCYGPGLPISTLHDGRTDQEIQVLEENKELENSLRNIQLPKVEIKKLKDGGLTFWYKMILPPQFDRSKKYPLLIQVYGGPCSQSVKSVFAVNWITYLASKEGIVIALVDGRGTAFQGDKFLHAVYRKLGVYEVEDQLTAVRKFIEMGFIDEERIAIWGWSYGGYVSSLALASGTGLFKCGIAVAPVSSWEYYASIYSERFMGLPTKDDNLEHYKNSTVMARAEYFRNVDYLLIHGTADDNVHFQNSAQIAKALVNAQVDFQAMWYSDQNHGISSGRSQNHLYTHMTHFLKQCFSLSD
Protocol: The day before measurement, 0.1 μg recombinant protein at a concentration of 1 μg/mL in 100 mM NaHCO₃, pH 8.2 was coated in a 96-well ELISA plate (Nunc MaxiSorp). Per VHH clone also a blank coated well was foreseen (only buffer). The wells were overcoated with protein-free T20 (PBS) blocking buffer (Pierce). After washing with PBS, pH7.4, 0.05% Tween, VHH-containing bacterial freeze-thaw extract was added to every well. Binding of HA-His₆-tagged VHHs was detected by using mouse anti-HA.11 epitope tag (clone 16B12, Biolegend) as the primary Ab and goat anti-mouse IgG (whole molecule) alkaline phosphatase conjugate (Sigma-Aldrich) as the secondary Ab, with thorough washing with PBS, pH 7.4, 0.05% Tween in between. Signals were developed using phosphatase substrate (Sigma-Aldrich) in AP blot buffer (100 mM NaCl, 50 mM MgCl₂, 100 mM Tris, pH 9.5). The absorbance was determined at 405 nm using an absorbance microplate reader (Molecular Devices). Per clone the ratio was determined between the absorbance in the antigen-coated well versus the well without antigen.

[2] = molecular target: T2, human FAP recombinant protein (human, UniProt Q12884 26-760); experiment: ELISA on coated recombinant protein, VHH-containing bacterial extract, anti-HA detection, signal-to-background ratio
T2 construct: The protein was biotinylated with sulfo-NHS-SS-biotin for bio-layer interferometry; also called extracellular domain of human FAP with N-terminal His6-tag
T2 sequence: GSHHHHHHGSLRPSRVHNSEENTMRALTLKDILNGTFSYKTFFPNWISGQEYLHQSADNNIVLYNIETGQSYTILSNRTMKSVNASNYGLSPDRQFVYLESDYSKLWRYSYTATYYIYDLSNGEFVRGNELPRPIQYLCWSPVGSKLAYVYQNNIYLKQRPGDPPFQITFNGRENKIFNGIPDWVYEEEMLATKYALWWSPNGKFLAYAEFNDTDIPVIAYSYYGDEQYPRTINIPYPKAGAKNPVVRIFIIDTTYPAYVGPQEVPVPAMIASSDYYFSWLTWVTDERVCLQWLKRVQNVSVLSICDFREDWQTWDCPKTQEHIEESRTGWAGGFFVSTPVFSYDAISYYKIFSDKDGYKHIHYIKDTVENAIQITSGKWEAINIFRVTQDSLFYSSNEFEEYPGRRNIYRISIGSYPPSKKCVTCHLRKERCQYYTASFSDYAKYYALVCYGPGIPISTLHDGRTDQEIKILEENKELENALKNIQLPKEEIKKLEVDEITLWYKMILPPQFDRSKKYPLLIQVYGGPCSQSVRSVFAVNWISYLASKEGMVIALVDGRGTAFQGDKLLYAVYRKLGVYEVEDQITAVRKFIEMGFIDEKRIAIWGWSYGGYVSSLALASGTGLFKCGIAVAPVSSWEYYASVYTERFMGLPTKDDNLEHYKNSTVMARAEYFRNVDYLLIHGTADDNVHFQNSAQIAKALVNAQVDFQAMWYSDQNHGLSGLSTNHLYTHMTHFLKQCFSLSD
In short: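 Recombinant protein coated overnight (0.1 μg, 1 μg/mL in NaHCO₃ pH 8.2), blocked, then probed with VHH-containing bacterial freeze-thaw extract. HA-tagged VHH detected via anti-HA and AP-conjugated secondary antibody, absorbance at 405 nm; value is ratio of antigen-coated to uncoated-well signal per clone.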

[3] = molecular target: T3, human FAP expressed on cells (human, UniProt Q12884 1-760); experiment: flow cytometry on human FAP-expressing GM05389 cells, VHH-containing bacterial extract, anti-HA and PE-conjugated secondary detection, Δmfi against cells without VHH
T3 construct: also called human FAP cell surface protein; human FAP receptor
T3 sequence: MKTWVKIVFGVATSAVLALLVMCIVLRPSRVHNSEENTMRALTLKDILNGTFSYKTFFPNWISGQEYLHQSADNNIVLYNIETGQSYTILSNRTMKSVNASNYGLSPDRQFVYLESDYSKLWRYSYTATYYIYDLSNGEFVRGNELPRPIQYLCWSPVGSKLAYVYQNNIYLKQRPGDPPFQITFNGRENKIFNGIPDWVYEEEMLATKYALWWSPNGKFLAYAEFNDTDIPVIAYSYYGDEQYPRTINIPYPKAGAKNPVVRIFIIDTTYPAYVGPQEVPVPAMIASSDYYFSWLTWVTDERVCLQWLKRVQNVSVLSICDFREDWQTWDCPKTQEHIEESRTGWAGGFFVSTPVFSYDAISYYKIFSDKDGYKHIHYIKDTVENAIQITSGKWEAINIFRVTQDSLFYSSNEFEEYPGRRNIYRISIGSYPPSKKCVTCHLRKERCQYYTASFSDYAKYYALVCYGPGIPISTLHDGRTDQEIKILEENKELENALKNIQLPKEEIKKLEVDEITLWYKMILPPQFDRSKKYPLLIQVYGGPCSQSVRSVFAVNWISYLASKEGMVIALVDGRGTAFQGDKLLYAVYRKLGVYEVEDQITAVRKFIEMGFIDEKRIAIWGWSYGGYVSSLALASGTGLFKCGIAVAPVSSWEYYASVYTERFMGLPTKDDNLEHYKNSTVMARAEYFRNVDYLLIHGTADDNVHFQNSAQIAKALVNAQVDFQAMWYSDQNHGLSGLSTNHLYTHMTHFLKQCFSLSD
Protocol: The cell binding was tested by flow cytometry experiments. Per test condition 1×10⁵ to 2×10⁵ cells, washed in PBS, 0.5% BSA, were pelleted in the well of a 96-well U-bottom plate. The cell pellets were resuspended and incubated with the VHH-containing bacterial freeze-thaw extracts (diluted in PBS, 0.5% BSA). Binding of HA-His₆-tagged VHHs was detected by using mouse anti-HA.11 epitope tag (clone 16B12, Biolegend) as the primary detection antibody and PE-conjugated rat anti-mouse IgG1 (clone A85-1, BD Pharmingen) as the secondary detection antibody, with washing with PBS, 0.5% BSA in between, and finally resuspended in PBS, 0.5% BSA.
Flow cytometry was performed on a FACS Canto II (BD Biosciences). Data were analyzed using FlowJo software. Based on the forward scatter-side scatter plot a single cell gate was drawn. The median fluorescence intensity was determined on a histogram for the phycoerythrin signal of the single cells. The difference in median fluorescence intensity (A mfi) was calculated relative to a test condition without incubation of VHHs (cells+primary Ab+secondary Ab), and are shown in FIG. 3.

[4] = molecular target: T1, murine FAP recombinant protein; experiment: bio-layer interferometry (Octet RED96), biotinylated murine FAP on streptavidin sensor
Protocol: (§1) The kinetic parameters of antigen binding by purified VHHs were determined via bio-layer interferometry with an Octet RED96 instrument (ForteBio). The assay was performed at 25° C. with shaking at 1000 rpm. Streptavidin coated SA sensors were equilibrated in assay buffer (HBS supplemented with 0.5% BSA, 0.1% Tween), before loading for 5 min with the biotinylated FAP recombinant protein at a concentration of 5 μg/ml. His₆-tagged VHHs were analyzed in a threefold serial dilution from 30 nM to 0.4 nM in assay buffer (except for VHH B3 binding murine FAP recombinant protein, for which a fivefold serial dilution from 1000 nM to 1.6 nM was employed). First the baseline was measured for 180 s in assay buffer, followed by 5 subsequent association phases of 180 s with the VHH preparations in increasing order of concentration, with 75 s intermediate dissociation phases in assay buffer in between, and a final dissociation phase in assay buffer of 30 min. In every assay a reference sensor loaded with FAP recombinant protein was included that was incubated in assay buffer during the association phases.
Binding curves were exported and analyzed using the BIAevaluation analysis software (GE Healthcare). First the y-axes of the different curves were aligned to the median of the last 5 s of the baseline measurement. […]

[5] = molecular target: T2, human FAP recombinant protein; experiment: bio-layer interferometry (Octet RED96), biotinylated human FAP on streptavidin sensor, kinetic titration, 25 °C
Protocol: as §1
Binding curves were exported and analyzed using the BIAevaluation analysis software (GE Healthcare). First the y-axes of the different curves were aligned to the median of the last 5 s of the baseline measurement. Subsequently, the sensorgram of the reference sensor was subtracted from all other sensorgrams. The resulting binding curve was fitted using a general fit with the ‘kinetic titration with drift’ binding model (1:1 (antigen:analyte) model; Karlsson, R. et al (2006), Analyzing a kinetic titration series using affinity biosensors. Analytical Biochemistry 349: 136-147), with Rmax fitted global, RI local and drift set to 0.
Table 7 gives an overview of the kinetic parameters of antigen binding for His₆-tagged VHHs B1, B2, B3 and B4 (SEQ ID NO: 21-24), as determined by bio-layer interferometry with biotinylated human or murine FAP recombinant protein that was loaded on the sensor.

[6] = molecular target: T3, human FAP expressed on cells; experiment: saturation binding of 111In-DOTA-labelled untagged VHH B1 on human FAP-expressing GM05389 cells
Protocol: Secondly, untagged human/murine FAP-crossreactive VHH B1 was radiolabeled with ¹¹¹In, after which its in vitro and in vivo diagnostic potential was evaluated. The binding potential of the resulting radio-conjugate was assessed to confirm that this was not affected by the conjugation of ¹¹¹In-DOTA to the amino acid sequence of the VHH. To this, human FAP-expressing GM05389 cells were incubated with serial dilutions with concentrations ranging from 0 to 33 nM of the ¹¹¹In-labelled VHHs. A 100-fold excess of the corresponding unlabeled VHH was added in parallel to saturate the human FAP receptors expressed on cancer cells, to assess non-specific binding.

[7] = molecular target: T3, human FAP expressed on cells; experiment: saturation binding of 177Lu-DTPA-labelled untagged VHH B1 on human FAP-expressing GM05389 cells
Protocol: (§2) In a first part, its in vitro behaviour was assessed by means of investigating its cellular binding and retention overtime. The binding potential of the resulting radioconjugates was assessed to confirm that this was not affected by the introduction of ¹⁷⁷Lu-DTPA into the amino acid sequence of the VHH. To this, human FAP-expressing GM05389 and HEK-293 cells were incubated with serial dilutions with concentrations ranging from 0 to 33 nM of ¹⁷⁷Lu-labeled untagged VHH B1. A 100-fold excess of the corresponding unlabeled VHH was added in parallel to saturate the human FAP receptors expressed on cancer cells, to assess non-specific binding.

[8] = molecular target: T3, human FAP expressed on cells; experiment: saturation binding of 177Lu-DTPA-labelled untagged VHH B1 on human FAP-expressing HEK-293 cells
Protocol: as §2

[9] = molecular target: T3, human FAP expressed on cells; experiment: saturation binding of 225Ac-DOTA-labelled untagged VHH B1 on human FAP-expressing GM05389 cells

B1: HA-His6-tagged VHH B4 (VHH)
VHH: QVQLQESGGGLVQVGGSLRLSCVASGFTFSSYYMSWVRQAPGKGLEWVASIYADGDMTYYADSVRGRFTISRDNAKNTLYLQMNSLKSEDTAVYYCAKDPLPPYHVNQGTQVTVSS
notes: also called B4 with HA-His6-tag
For B1, the signal-to-background ratio [1] was > 30, the binding result [2] was “no binding” and the binding result [3] was “no binding”.

B2: His6-tagged VHH B3 (VHH)
VHH: DVQLVESGGGLVQAGGSLRLSCAVSGRLFSTNAMGWYRQAPGKQRELVAGITGGDRSNYADSVKGRFTISRDNGKNTLYLQMNSLKPEDTAVYYCNFYPPIVGDYWGQGTQVTVSS
notes: Purified, unlabelled; used in bio-layer interferometry; also called B3 with His6-tag
For B2, the binding result [4] was “no binding”, the Kd [5] was 160 pM and the koff [5] was 5.4e-05 s⁻¹. The kon [5] was 340000 M⁻¹ s⁻¹.

B3: 111In-labeled untagged VHH B1 (VHH)
VHH: DVQLVESGGGLVQPGGSLRLSCVASGRLSSSNSMAWYRQVPGKRRELVAGITGGGETNYADFVGGRFTISRDNAKNGLYLQLNGLKPEDTAAYYCNFWPPLINYWGQGTQVTVSS
modifications: 111In-DOTA (p-SCN-Bn-DOTA) conjugated to lysine side-chain amines
In the case of B3, the EC50 [6] is reported as 600 pM.

B4: 177Lu-labeled untagged VHH B1 (VHH)
VHH: DVQLVESGGGLVQPGGSLRLSCVASGRLSSSNSMAWYRQVPGKRRELVAGITGGGETNYADFVGGRFTISRDNAKNGLYLQLNGLKPEDTAAYYCNFWPPLINYWGQGTQVTVSS
modifications: 177Lu-DTPA (p-SCN-Bn-CHX-A''-DTPA) conjugated to lysine side-chain amines
notes: also called 177Lu-B1; 177Lu-DTPA-VHH
Binder B4 has an EC50 [7] of 500 pM and an EC50 [8] of 800 pM.

B5: 225Ac-labeled untagged VHH B1 (VHH)
VHH: DVQLVESGGGLVQPGGSLRLSCVASGRLSSSNSMAWYRQVPGKRRELVAGITGGGETNYADFVGGRFTISRDNAKNGLYLQLNGLKPEDTAAYYCNFWPPLINYWGQGTQVTVSS
modifications: 225Ac-DOTA (p-SCN-Bn-DOTA) conjugated to lysine side-chain amines
notes: also called 225Ac-DOTA-VHH
Binder B5 has an EC50 [9] of 400 pM.
